Data taken from patent US12312641B2, “Sensitivity marker for antibody-drug conjugate” (priority 2018, dated 2025).

Test system: patient-derived xenograft (PDX) model
Experiment: Anti-tumor effect (TGI) in patient-derived xenograft models, 21 days after administration
Type: in vivo, nu/nu mice
Details: for TGI (%): 10 mg/kg tail vein, 21 days after administration; for Proportion of PDX models showing TGI of 75% or more: TGI at 21 days
Procedure: Mice: Female nu/nu mice (Envigo) aged 5-8 weeks were acclimatized under SPF conditions for 3 days or more prior to experimental use. Mice were fed with sterile solid feed (Teklad2919, Envigo) and given reverse osmosis membrane-treated water (containing 2 ppm chlorine).
Measurements and Calculation formula: long and short diameters of tumors were measured twice a week with an electronic digital caliper (CD-6PMX, Mitutoyo Corp.) and tumor volume (mm^3) was calculated using the following calculation formula: Tumor volume (mm^3)=0.52×Long diameter (mm)×[Short diameter (mm)]^2
Tumor fragments from each cancer patient were subcutaneously implanted into mice and passaged. The obtained tumors were used to subcutaneously implant tumor fragments, which were cut to approximately 5×5×5 mm^3, into the left abdomen of the female nu/nu mice, thereby each patient-derived xenograft (PDX) model was created. Mice were randomly grouped when the mean transplanted tumor volume reached 150 to 300 mm^3 (Day 0). On the same day as grouping, the antibody-drug conjugate (1) was administered into the tail vein at a dose of 10 mg/kg. A formulation buffer was similarly administered at a volume of 10 mL/kg as a negative control. Tumor growth inhibition rates (TGI (%)) were calculated according to the following calculation formula using each tumor volume 21 days after administration (Table 1). Tumor growth inhibition rate (%)=100×(1−Tf/mean Cf) • Tf: tumor volume 21 days after administration of antibody-drug conjugate (1) • mean Cf: arithmetic mean tumor volume 21 days after administration in negative control group mice
Data on the amount of gene expression in each PDX model used in Example 2 were obtained and normalized at Champions Oncology, Inc., thereby a RPKM value was obtained. To the RPKM value, 1 was added, and the sum was transformed to a logarithmic (log2) to obtain a log2[RPKM+1] value (Table 2). The log2[RPKM+1] value was used to analyze the relationship between the anti-tumor activity of antibody-drug conjugate (1) in each PDX model (Table 1) and the amount of expression of the hTROP2 gene and the SLFN11 gene. […] When TGI was 80% or more, the prediction rate decreased to an order of 60% only when the log2[RPKM+1] value of the hTROP2 gene exceeded 7.5 and the log2[RPKM+1] value of the SLFN11 gene exceeded 1.0 and was less than or equal to 2.

B1: antibody-drug conjugate (1): humanized anti-hTROP2 antibody (SEQ ID NO: 1 residues 20-470, SEQ ID NO: 2 residues 21-234) conjugated to the exatecan-derivative drug-linker via a thioether bond (conjugate, chains of the INN, looked up)
VH: QVQLVQSGAEVKKPGASVKVSCKASGYTFTTAGMQWVRQAPGQGLEWMGWINTHSGVPKYAEDFKGRVTISADTSTSTAYLQLSSLKSEDTAVYYCARSGFGSSYWYFDVWGQGTLVTVSS
VL: DIQMTQSPSSLSASVGDRVTITCKASQDVSTAVAWYQQKPGKAPKLLIYSASYRYTGVPSRFSGSGSGTDFTLTISSLQPEDFAVYYCQQHYITPLTFGQGTKLEIK
modifications: exatecan-derivative drug-linker
TGI (%) (PDX model #1, Breast): 98.1% | TGI (%) (PDX model #2, Lung): 77.3% | TGI (%) (PDX model #3, Cholangiocarcinoma): 48.0% | TGI (%) (PDX model #4, Pancreatic): 48.5% | TGI (%) (PDX model #5, Colorectal): 65.0% | TGI (%) (PDX model #6, Breast): 95.5% | TGI (%) (PDX model #7, Breast): 94.7% | TGI (%) (PDX model #8, Head and neck): 55.6% | TGI (%) (PDX model #9, Head and neck): 99.1% | TGI (%) (PDX model #10, Lung): 97.7% | TGI (%) (PDX model #11, Lung): 95.4% | TGI (%) (PDX model #12, Breast): 95.8% | TGI (%) (PDX model #13, Lung): 70.0% | TGI (%) (PDX model #14, Breast): 90.1% | TGI (%) (PDX model #15, Cholangiocarcinoma): 61.2% | TGI (%) (PDX model #16, Colorectal): 52.7% | TGI (%) (PDX model #17, Breast): 62.6% | TGI (%) (PDX model #18, Lung): 18.4% | TGI (%) (PDX model #19, Lung): 50.3% | Proportion of PDX models showing TGI of 75% or more (log2[RPKM+1]: hTROP2 >6.5, SLFN11 >1, 10 models): 60% | Proportion of PDX models showing TGI of 75% or more (log2[RPKM+1]: hTROP2 >6.5, SLFN11 >2, 6 models): 83% | Proportion of PDX models showing TGI of 75% or more (log2[RPKM+1]: hTROP2 >6.5, SLFN11 >3, 3 models): 100% | Proportion of PDX models showing TGI of 75% or more (log2[RPKM+1]: hTROP2 >6.5, SLFN11 All models, 15 models): 47% | Proportion of PDX models showing TGI of 75% or more (log2[RPKM+1]: hTROP2 >7.0, SLFN11 >1, 9 models): 67% | Proportion of PDX models showing TGI of 75% or more (log2[RPKM+1]: hTROP2 >7.0, SLFN11 >2, 6 models): 83% | Proportion of PDX models showing TGI of 75% or more (log2[RPKM+1]: hTROP2 >7.0, SLFN11 >3, 3 models): 100% | Proportion of PDX models showing TGI of 75% or more (log2[RPKM+1]: hTROP2 >7.0, SLFN11 All models, 11 models): 55% | Proportion of PDX models showing TGI of 75% or more (log2[RPKM+1]: hTROP2 >7.5, SLFN11 >1, 6 models): 83% | Proportion of PDX models showing TGI of 75% or more (log2[RPKM+1]: hTROP2 >7.5, SLFN11 >2, 4 models): 100% | Proportion of PDX models showing TGI of 75% or more (log2[RPKM+1]: hTROP2 >7.5, SLFN11 >3, 2 models): 100% | Proportion of PDX models showing TGI of 75% or more (log2[RPKM+1]: hTROP2 >7.5, SLFN11 All models, 8 models): 63% | Proportion of PDX models showing TGI of 75% or more (log2[RPKM+1]: hTROP2 >8.0, SLFN11 >1, 5 models): 80% | Proportion of PDX models showing TGI of 75% or more (log2[RPKM+1]: hTROP2 >8.0, SLFN11 >2, 3 models): 100% | Proportion of PDX models showing TGI of 75% or more (log2[RPKM+1]: hTROP2 >8.0, SLFN11 >3, 2 models): 100% | Proportion of PDX models showing TGI of 75% or more (log2[RPKM+1]: hTROP2 >8.0, SLFN11 All models, 7 models): 57% | Proportion of PDX models showing TGI of 75% or more (log2[RPKM+1]: hTROP2 All models, SLFN11 >1, 13 models): 54% | Proportion of PDX models showing TGI of 75% or more (log2[RPKM+1]: hTROP2 All models, SLFN11 >2, 9 models): 67% | Proportion of PDX models showing TGI of 75% or more (log2[RPKM+1]: hTROP2 All models, SLFN11 >3, 5 models): 80% | Proportion of PDX models showing TGI of 75% or more (log2[RPKM+1]: hTROP2 All models, SLFN11 All models, 19 models): 47% | Prediction rate when TGI was 80% or more (log2[RPKM+1]: hTROP2 exceeded 7.5 and SLFN11 exceeded 1.0 and less than or equal to 2): ~60% | Proportion of animal models showing TGI of 75% or more (log2[RPKM+1]: hTROP2 exceeds 7.5 and SLFN11 exceeds 2.0, or hTROP2 exceeds 6.5 and SLFN11 exceeds 3.0): 100%
